{"source": "patent US20030198598A1", "about": "“Polypeptide derivatives” (priority 1989, published 2003)", "key": {"[1]": {"target": "T1, LHRH-receptors (Rattus norvegicus, UniProt P30969)", "T1 construct": "LHRH receptor positive anterior pituitary membranes from male Sprague-Dawley rats; from tissue; host or cells: anterior pituitary membranes of male Sprague-Dawley rats", "T1 sequence (P30969 1-327)": "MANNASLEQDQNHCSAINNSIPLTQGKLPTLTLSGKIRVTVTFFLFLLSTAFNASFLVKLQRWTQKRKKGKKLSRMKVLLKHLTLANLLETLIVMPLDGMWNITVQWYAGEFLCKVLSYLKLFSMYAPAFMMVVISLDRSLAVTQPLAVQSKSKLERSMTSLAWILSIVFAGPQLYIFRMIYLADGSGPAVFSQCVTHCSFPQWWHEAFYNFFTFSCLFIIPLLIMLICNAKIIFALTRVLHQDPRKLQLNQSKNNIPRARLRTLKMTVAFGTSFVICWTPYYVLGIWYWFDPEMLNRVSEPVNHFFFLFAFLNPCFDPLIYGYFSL", "experiment": "Binding assay on LHRH receptor positive anterior pituitary membranes", "design": "species or system male Sprague-Dawley rats", "settings": "labelled with 0.4 mCi 111InCl3, 10^-6 M (DAla6)LHRH for non-specific binding"}, "[2]": {"target": "T2, EGF receptor (Homo sapiens, UniProt P00533)", "T2 construct": "Membranes are isolated by differential centrifugation; from tissue; host or cells: EGF receptor positive human tumor (membranes)", "experiment": "Inhibition of specifically bound [125I]-EGF on membranes of an EGF receptor positive human tumor", "type": "binding", "settings": "30 min at 37° C", "description": "(§1) An EGF receptor positive human tumor is removed and immediately stored at −70° C. During the subsequent isolation procedure this material is kept at 0 to 4° C. The tumor tissue is dissected into small cubes prior to homogenisation in 5 parts of Buffer A (20 mM HEPES, 0.1 mM EDTA and 250 mM sucrose, pH 7.4). Membranes are isolated by differential centrifugation. The material is then diluted in the incubation buffer containing 30 mM HEPES, pH 7.4, 1 mg/ml BSA and 1 mM benzamidine. The test mixture (200 μl final volume) contains 100 000 cpm [^125I]-EGF, the tissue (5 to 25 μg protein/assay) and compound of Example 3 at a concentration of 10^−9 M. After mixing the icecold test solution on a vortex the tubes (polypropylene) are transfered to a waterbath and incubated for 30 min at 37° C. The reaction is stopped by addition of icecold Hank's or Tris buffer (4 ml). The Tris buffer contains 10 mM Tris in 0.9% sodium chloride solution and is adjusted to pH 7.4. Routinely, filtration buffers contain 1% BSA (Fraction V) to suppress non-specific binding to the glass fiber filters (type A/E) that have been soaked in the filtration buffer a few minutes prior to use. The tubes are rinsed with 4 ml of the filtration buffer and the rinsing fluid is put over the respective filters. A third wash of the filters is followed by drying and the measurement of the filter-bound radioactivity in a γ-counter. […]"}, "[3]": {"target": "T2, EGF receptor", "experiment": "Similar binding assay with the 111In labelled compound as test substance, non-specific binding with 10^-7 M EGF", "settings": "compound of Example 3 labelled with 0.2 mCi 111InCl3; controls with 10^-7 M EGF", "description": "as §1, with “The test mixture (200 μl final volume) contains 100 000 cpm [^125I]-EGF, the tissue (5 to 25 μg protein/assay) and compound of Example 3 at a concentration of 10^−9 M.” left out, “γ-counter. The washing of the filters takes approximately 10 sec.” for “γ-counter.”"}, "[4]": {"system": "EGF receptor positive tumour (MDA 231, MDA 468 or A 431 tumors)", "design": "species or system nude mice", "settings": "mouse, in vivo, iv", "description": "Biodistribution of radioactivity may be determined either with standard imaging techniques in nude mice weighing 20+5 g and bearing an EGF receptor positive tumour (MDA 231, MDA 468 or A 431 tumors) or through serial sacrifice of a number of such animals and determination of the organ radioactivity. Compound of Example 4 is administered i.v. to the animals at a dosage corresponding to 90-10 μCi and the radioactivity is assessed 5 min, 10 min, 15 min, 30 min, 60 min, 20 hrs and 48 hrs."}}, "note": "Where a SMILES comes first, the peptide text is derived from it. [ ]: non-standard residue; d: D form. The star is where a group is joined. DTPA = O=C(O)CN(CCN(CC(=O)O)CC(=O)O)CCN(CC(=O)O)CC(=O)*; dPhe(4-Cl) = N[C@H](Cc1ccc(Cl)cc1)C(=O)O", "data": [{"molecule": "CC(=O)N[C@H](Cc1ccc(Cl)cc1)C(=O)N[C@H](Cc1ccc(Cl)cc1)C(=O)N[C@H](Cc1c[nH]c2ccccc12)C(=O)N[C@@H](CO)C(=O)N[C@@H](Cc1ccc(O)cc1)C(=O)N[C@H](CCCCNC(=O)CN(CCN(CCN(CC(=O)O)CC(=O)O)CC(=O)O)CC(=O)O)C(=O)N[C@@H](CC(C)C)C(=O)N[C@@H](CCCNC(=N)N)C(=O)N1CCC[C@H]1C(=O)N[C@H](C)C(N)=O", "note": "[^111In labelled compound of Example 8, metal not drawn] (Ac-[dPhe(4-Cl)][dPhe(4-Cl)][dW]SY[dK](DTPA)LRP[dA]-NH2)", "values": [{"measurement": "IC50", "setting": "[1]", "result": 1.1, "unit": "nM"}]}, {"molecule": "DTPA-β-Ala-mEGF [Example 3]", "values": [{"measurement": "IC50", "setting": "[2]", "result": 1.3, "unit": "nM"}]}, {"molecule": "^111In Labeled DTPA-β-Ala-mEGF [Example 4]", "values": [{"measurement": "IC50", "setting": "[3]", "result": 3, "unit": "nM"}, {"measurement": "Localisation of radioactivity 5 minutes after injection", "setting": "[4]", "result": "radioactivity is detected in the liver, kidneys, urinary bladder and in the tumor site"}, {"measurement": "Localisation of radioactivity 60 min after injection", "setting": "[4]", "result": "Radioactivity is increasing and is localized on the tumor site"}]}]}
